Test results published in PMC12379891.

Target: AeCRK^G359E (kinase-dead cysteine-rich receptor-like kinase of Aeschynomene evenia), mCherry-tagged and YFP-tagged copies (Aeschynomene evenia)
Experiment: co-IP

Substance | fold enrichment in the co-IP over the negative control MtLYK3-CFP [fold]
AeCRK^G359E (kinase-dead cysteine-rich receptor-like kinase of Aeschynomene evenia), mCherry-tagged and YFP-tagged copies | 7.37
AeRLCK2-YFP (receptor-like cytoplasmic kinase 2 of Aeschynomene evenia) (natural protein) | 2.9
